Data published in patent publication US20140178394A1.

Target: HLA-A*0201 HLA class I MHC monomer (iTopia Epitope Discovery System, coated on plate) (human)
Experiment: overall rank from iTopia EDS and CEM T2 assays on HLA-A*0201

RANK F-Score: 2
Binder: SLLMWITQV (modifications not checked) [reference peptide 513 (NY-ESO-1), …]
